The record followed here is US20070184522A1, “Cell death modulation via antagonists of Fasl and Fas activation” (University of Pittsburgh of the Commonwealth System of …, priority 2004, published 2007).

The target of experiment [1] is CFP-tagged and YFP-tagged Fas expressed in Hepa 1-6 cells. Put plainly: cell-based or functional assay.
Experiment [2] concerns the target endogenous Fas of Jurkat cells (human) (UniProt P25445). The experiment can be described thus: cell-based or functional assay.
Experiment [3] addresses T1, Fas trimerization in Jurkat cells (Homo sapiens, UniProt P25445).
T1 construct: endogenous in cells; host or cells: Jurkat
T1 sequence (P25445 26-335): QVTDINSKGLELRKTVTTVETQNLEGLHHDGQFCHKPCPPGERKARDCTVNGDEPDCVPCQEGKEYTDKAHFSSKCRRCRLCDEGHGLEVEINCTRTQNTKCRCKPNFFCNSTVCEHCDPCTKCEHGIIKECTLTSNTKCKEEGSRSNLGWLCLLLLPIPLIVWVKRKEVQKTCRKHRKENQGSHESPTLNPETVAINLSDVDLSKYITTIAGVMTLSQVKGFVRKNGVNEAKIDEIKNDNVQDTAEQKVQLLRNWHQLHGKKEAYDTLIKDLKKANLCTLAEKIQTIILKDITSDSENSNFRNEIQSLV
Put plainly: Chemical crosslinking (DTSSP) and Western blot of Fas trimerization in Jurkat cells. As to conditions: Fas-Ligand and DTSSP. In kind it is cell-based. How it is done:
FIG. 3a presents data collected from Jurkat cells (1×10^6) treated with 2 μg/ml of Fas Ligand with or without AlphaMet for 30 minutes on ice. Cells were washed with PBS twice and then incubated with 2 mM of DTSSP in PBS for 30 minutes. The crosslinking process was stopped by 20 mM of Tris (pH 7.5) for another 30 minutes. Cells were spun down and washed with PBS twice and lyzed in RIPA buffer. Cell lysates were subjected to SDS-PAGE under non-reducing or reducing conditions (FIG. 3b) and Western blot analysis using the mouse monoclonal antibody against human Fas. FIG. 3c depicts the quantification of the data in FIG. 3a by densitometry. The data are the mean and SE from three different independent crosslinking and Western blot experiments. […] Frame A: Acceptor CFP-Fas image; Frame B: Acceptor pre-bleach CFP-Fas image; Frame C: Acceptor post-bleach image. Frame D: Donor YFP-Fas image; Frame E: Donor pre-bleach image; Frame F: […]. The CFP-Fas strength in the selected region obtained a gain of 19.3% efficiency in the presence of FasL for 15 minutes. No FRET was observed without FasL. […] FIG. 3e depicts the results of experiments in which CFP-tagged Fas or CFP control vector were transiently expressed in Hepa 1-6 Cells (3×10^5). […] Cells were fixed and analyzed by fluorescence microscopy. […]

Experiment [4] relates to Fas self-assembly in Hepa 1-6 cells. Put plainly: FRET assay of CFP-Fas/YFP-Fas in transfected Hepa 1-6 cells. In kind it is cell-based. As to conditions: Hepa 1-6, FasL for 15 minutes. As for the experimental part:
FIG. 3a presents data collected from Jurkat cells (1×10^6) treated with 2 μg/ml of Fas Ligand with or without AlphaMet for 30 minutes on ice. Cells were washed with PBS twice and then incubated with 2 mM of DTSSP in PBS for 30 minutes. The crosslinking process was stopped by 20 mM of Tris (pH 7.5) for another 30 minutes. Cells were spun down and washed with PBS twice and lyzed in RIPA buffer. Cell lysates were subjected to SDS-PAGE under non-reducing or reducing conditions (FIG. 3b) and Western blot analysis using the mouse monoclonal antibody against human Fas. FIG. 3c depicts the quantification of the data in FIG. 3a by densitometry. The data are the mean and SE from three different independent crosslinking and Western blot experiments. […] Frame A: Acceptor CFP-Fas image; Frame B: Acceptor pre-bleach CFP-Fas image; Frame C: Acceptor post-bleach image. Frame D: Donor YFP-Fas image; Frame E: Donor pre-bleach image; Frame F: Donor pre-bleach image. […] Cells were fixed and analyzed by fluorescence microscopy. […]
FRET assay. […] Fret efficiency (E) was calculated as FRETeff=(Dpost−Dpre)/Dpost (Dpost and Dpre are the mean emission intensity […] YFP bleaching).
Fluorescence protein tagged Fas molecules and Hepa 1-6 cells were used for these experiments. […] In these experiments the percent of Fas capping was also determined.

Experiment [5] concerns Fas capping in Hepa 1-6 cells. Put plainly: Fas capping of fluorescent protein tagged Fas in Hepa 1-6 cells. The class given is cell-based. The conditions noted are these: Hepa 1-6, 30 minutes treatment. As for the experimental part:
FIG. 3a presents data collected from Jurkat cells (1×10^6) treated with 2 μg/ml of Fas Ligand with or without AlphaMet for 30 minutes on ice. Cells were washed with PBS twice and then incubated with 2 mM of DTSSP in PBS for 30 minutes. The crosslinking process was stopped by 20 mM of Tris (pH 7.5) for another 30 minutes. Cells were spun down and washed with PBS twice and lyzed in RIPA buffer. Cell lysates were subjected to SDS-PAGE under non-reducing or reducing conditions (FIG. 3b) and Western blot analysis using the mouse monoclonal antibody against human Fas. FIG. 3c depicts the quantification of the data in FIG. 3a by densitometry. The data are the mean and SE from three different independent crosslinking and Western blot experiments. […] Frame A: Acceptor CFP-Fas image; Frame B: Acceptor pre-bleach CFP-Fas image; Frame C: Acceptor post-bleach image. Frame D: Donor YFP-Fas image; Frame E: Donor pre-bleach image; Frame F: […]. The CFP-Fas strength in the selected region obtained a gain of 19.3% efficiency in the presence of FasL for 15 minutes. No FRET was observed without FasL. […] FIG. 3e depicts the results of experiments in which CFP-tagged Fas or CFP control vector were transiently expressed in Hepa 1-6 Cells (3×10^5). Cells were treated with 1 μg/ml of Fas ligand or 100 ng/ml of Jo2 with or without 5 μg/ml of AlphaMet or 1 μg/ml of YLGA 12 mer for 30 minutes on ice. Cells were fixed and analyzed by fluorescence microscopy. Frame A: AlphaMet treatment only, no FasL; Frame B: Fas ligand treatment only; Frame C: Fas ligand and AlphaMet treatment; Frame D: Fas ligand and 12 mer YLGA; Frame E: Jo2 treatment only and Frame F: Jo2 and AlphaMet treatment.
Fluorescence protein tagged Fas molecules and Hepa 1-6 cells were used for these experiments. These cells were transiently co-transfected with CFP and YFP chimeric Fas expression vectors using the lipofectamine 2000 method (Invitrogen). After 24 hours of transfection, about 50% of the cells were fluorescing. The cells were treated by Fas-ligand in the presence or absence of AlphaMet for 30 minutes. Treated cells were then fixed with cold methanol and subjected to FRET analysis. Cells were considered positive if FRET efficiency was over 10%. FRET phenomenon was observed only in cells that were treated with Fas-ligand. […] In these experiments the percent of Fas capping was also determined.

The next experiment deals with Jurkat cells. The experiment can be described thus: Fas-ligand induced apoptosis in Jurkat cells (Trypan Blue, flow cytometry). The class given is cell-based, human. How it is done:
For FIG. 4a, Jurkat cells (1.5×10^5) were overnight treated in triplicate with 5 ng/ml of crosslinked human Fas ligand with or without 5 μg/ml of recombinant AlphaMet or 1 μg/ml of the indicated polypeptides. Percent apoptosis was determined by Trypan Blue staining using a hemocytometer. The data are representative and were repeated at least four times. […] The 17 kDa fragment of cleaved Caspase 3 is visualized by this antibody. The blot was reprobed for β-actin as a loading control. For FIG. 4c, serum deprived Hepa 1-6 cells (3×10^5) were overnight treated with 1 μg/ml of crosslinked mouse Fas ligand with or without AlphaMet or the indicated polypeptide. Media were collected and centrifuged to pellet the dead cells. […] The data in FIG. 4c represents three independent experiments.
Apoptosis assay. Pre-washed Jurkat cells in RPMI 1640 medium containing 1% FBS were inoculated in 96-wells at a density of 10^5 cells per well. Apoptosis was induced by cross-linked human Fas-ligand (R&D Systems) at a concentration of 0.5 ng/ml or Anti-Fas (human, activating) clone CH11 (Upstate biotechnology) at a concentration of 500 ng /ml. Hepa 1-6 cells were overnight starved before induction of apoptosis. The apoptosis in Hepa 1-6 was induced by anti-mouse Fas antibody Jo2 (200 ng/ml) or human recombinant Fas-ligand. The extent of cell viability and apoptosis was determined by several methods such as Trypan Blue stain, flow cytometry, LDH assay, and Hoechst staining.

soluble Fas Ligand (recombinant FasL): in experiment [1], the FRET efficiency between CFP-Fas and YFP-Fas stood at 19.3%; the percent of fluorescent cells showing Fas capping is 20%. In addition, in experiment [2], the Fas trimerization (DTSSP crosslinking, Western blot, densitometry) turned out to be 3 fold.

B1: FasL: recombinant soluble Fas Ligand, cognate ligand of Fas, used to induce apoptosis (protein)
chain: QLFHLQKELAELRESTSQMHTASSLEKQIGHPSPPPEKKELRKVAHLTGKSNSRSMPLEWEDTYGIVLLSGVKYKKGGLVINETGLYFVYSKVYFRGQSCNNLPLSHKVYMRNSKYPQDLVMMEGKMMSYCTTGQMWARSSYLGAVFNLTSADHLYVNVSELSLVNFEESQTFFGLYKL
For the molecule B1, the “intensity of trimeric Fas complex versus ligand unstimulated crosslinked cells” value in experiment [3] is given as “about 3 fold”. The FRET efficiency gain in experiment [4] came to 19.3%. Also, in experiment [5], the “fluorescent cells showing Fas capping” value is 20%. The death rate entry in the experiment with Jurkat cells (Fas-ligand overnight, AlphaMet 5 μg/ml, Trypan Blue) is reported as “about 50%”. In the experiment with Jurkat cells (Propidium Iodide flow cytometry, Fas-ligand), the “sub-G1 (apoptotic) population” value is listed as 48%.
